The source of these data is patent US20210395346A1 (SEOUL NATIONAL UNIVERSITY R AND DB FOUNDATION, published 2021).

In assay [1] the target is T1, recombinant SARS-CoV-2 RBD protein (wild-type) (SARS-CoV-2; human, UniProt P0DTC2 306-543).
T1 construct: range 306-543
The assay is described as follows: ELISA (FIG. 18E). In general terms: An ELISA detects its analyte on a solid surface through an enzyme-linked reagent.

Assay [2] addresses T1, recombinant SARS-CoV-2 RBD protein …. The assay is described as follows: ELISA (FIG. 18C).
The target is the same in assay [3]. The assay is described as follows: ELISA (FIG. 18B).
Assay [4] shares this target. The assay is described as follows: ELISA (FIG. 18A).

B1: E-3G9 antibody (format in FIG. 18 not stated) (antibody, V domains shown)
VH: QMQLVQSGAEVKKPGASVKVSCKASGHTITSYYMHWVRQAPGQGLEWMGIINPSGGSTSYAQKFQGRVTMTRDTSTSTVYMELSSLRSEDTAVYYCAREGVWDSSGYSSFDYWGQGTLVTVSS
VL: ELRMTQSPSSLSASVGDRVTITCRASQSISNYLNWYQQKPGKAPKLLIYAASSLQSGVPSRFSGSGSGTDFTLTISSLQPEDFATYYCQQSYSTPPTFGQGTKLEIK
For the molecule B1, the binding result in assay [1] was “binds”.

B2: A-2H4 antibody (format in FIG. 18 not stated) (antibody, V domains shown)
VH: QMQLVESGGGLVQPGRSLRLSCAASGFTFSVYGMHWVRQAPGKGLEWVAVISYDGSNKYYADSVKGRFSISRDNSKNTLYLQMNSLRGEDTAVYYCAKGGPRPVVKAYGELDYYGMDVWGQGTTVTVSS
VL: ELALTQPASVSGSPGQSITISCTGTSSDIGGYEYVSWYQQHPGKAPKLIIYDVRDRPSGISNRFSGSKSGNTASLIISSLQAGDEADYYCFSYTSSGTYVFGSATKVTVL
Turning to B2, in assay [2], the binding result is on record as “binds”.

B3: A-2F1 antibody (format in FIG. 18 not stated) (antibody, V domains shown)
VH: QVQLVQSGGGLIQPGGSLRLSCAASGVTVSSNYMSWVRQAPGKGLEWVSVIYSGGSTFYADSVKGRFTISRDNSKNTLYLQMNSLRAEDTAVYYCARDLMEAGGMDVWGQGSTVTVSS
VL: ELALTQPPSASGSPGQSVTISCTASSSDIGASNHVAWYQQNPGKAPKLMIYGVSGRPSGVPDRFSGSKSGNTASLTVSGLQAEDEADYYCSSYAGSNILIFGGGTKLTVL
For B3, the binding result in assay [3] is listed as “binds”.

B4: A-1H4 antibody (format in FIG. 18 not stated) (antibody, V domains shown)
VH: EVQLVESGGGLVQPGRSLRLSCAASGFTVSSNYMSWVRQAPGKGLEWVSGIYSGGSTYYADSVKGRFTISRDNSKNTLYLQMNSLRAEDTAVYYCARDLQEAGAFDIWGQGTMVTVSS
VL: ELQLTQSPSFLSASVGDRVTITCRASQGISSYLAWYQQKPGKAPKLLIYAASTLQSGVPSRFSGSGSGTEFTLTISSLQPEDFATYYCQQLNSYPRLTFGGGTKVEIK
In the case of B4, in assay [4], the binding result was “binds”.
